In US20260028403A1 (Zymeworks, published 2026):

B1: v34891 (parental huTN228 OAA) (antibody, V domains shown)
VH: QVQLQESGPGLVKPSETLSLTCAVSGFSLTSYGVHWIRQPPGKGLEWLGVIWPGGGTNFNSALMSRLTISEDTSKNQVSLKLSSVTAADTAVYYCARDRAYGNYLYAMDYWGQGTLVTVSS
VL: DIQMTQSPSSLSASVGDRVTITCRASESVEYYVTSLMQWYQQKPGKAPKLLIYAASNVDSGVPSRFSGSGSGTDFTLTISSLQPEDIATYYCQQSRKVPFTFGGGTKVEIK
notes: one-arm Fab antibody (OAA) format; also called huTN228 parental one-arm Fab antibody
B2: v37845 (antibody, V domains shown)
VH: QVQLQESGPGLVKPSETLSLTCAVSGFSLTSAGVHWIRQPPGKGLEWLGVIWPGGGTNFNSALMSRLTISEDTSKNQVSLKLSSVTAADTAVYYCARDRAYGNYLYAMDYWGQGTLVTVSS
VL: DIQMTQSPSSLSASVGDRVTITCRASESVEYYVTSLMQWYQQKPGKAPKLLIYAASNVDSGVPSRFSGSGSGTDFTLTISSLQPEDIATYYCQQSRKVPFTFGGGTKVEIK
notes: OAA format; also called huTN228 Y1037A (VH) OAA
B3: v37858 (antibody, V domains shown)
VH: QVQLQESGPGLVKPSETLSLTCAVSGFSLTSYGVHWIRQPPGKGLEWLGVIWPGGGTNFNSALMSRLTISEDTSKNQVSLKLSSVTAADTAVYYCARDRAYGNYAYAMDYWGQGTLVTVSS
VL: DIQMTQSPSSLSASVGDRVTITCRASESVEYYVTSLMQWYQQKPGKAPKLLIYAASNVDSGVPSRFSGSGSGTDFTLTISSLQPEDIATYYCQQSRKVPFTFGGGTKVEIK
notes: OAA format as v34891; also called huTN228 L1112AA (VH) OAA
B4: v37855 (antibody, V domains shown)
VH: QVQLQESGPGLVKPSETLSLTCAVSGFSLTSYGVHWIRQPPGKGLEWLGVIWPGGGTNFNSALMSRLTISEDTSKNQVSLKLSSVTAADTAVYYCARDRAYANYLYAMDYWGQGTLVTVSS
VL: DIQMTQSPSSLSASVGDRVTITCRASESVEYYVTSLMQWYQQKPGKAPKLLIYAASNVDSGVPSRFSGSGSGTDFTLTISSLQPEDIATYYCQQSRKVPFTFGGGTKVEIK
notes: OAA format as v34891; also called huTN228 G1111A (VH) OAA
B5: v37856 (antibody, V domains shown)
VH: QVQLQESGPGLVKPSETLSLTCAVSGFSLTSYGVHWIRQPPGKGLEWLGVIWPGGGTNFNSALMSRLTISEDTSKNQVSLKLSSVTAADTAVYYCARDRAYGAYLYAMDYWGQGTLVTVSS
VL: DIQMTQSPSSLSASVGDRVTITCRASESVEYYVTSLMQWYQQKPGKAPKLLIYAASNVDSGVPSRFSGSGSGTDFTLTISSLQPEDIATYYCQQSRKVPFTFGGGTKVEIK
notes: OAA format; also called huTN228 N1111AA (VH) OAA
B6: v37868 (antibody, V domains shown)
VH: QVQLQESGPGLVKPSETLSLTCAVSGFSLTSYGVHWIRQPPGKGLEWLGVIWPGGGTNFNSALMSRLTISEDTSKNQVSLKLSSVTAADTAVYYCARDRAYGNYLYAMDYWGQGTLVTVSS
VL: DIQMTQSPSSLSASVGDRVTITCRASESVEYAVTSLMQWYQQKPGKAPKLLIYAASNVDSGVPSRFSGSGSGTDFTLTISSLQPEDIATYYCQQSRKVPFTFGGGTKVEIK
notes: OAA format as v34891; also called huTN228 Y1034A (VL) OAA
B7: v37869 (antibody, V domains shown)
VH: QVQLQESGPGLVKPSETLSLTCAVSGFSLTSYGVHWIRQPPGKGLEWLGVIWPGGGTNFNSALMSRLTISEDTSKNQVSLKLSSVTAADTAVYYCARDRAYGNYLYAMDYWGQGTLVTVSS
VL: DIQMTQSPSSLSASVGDRVTITCRASESVEYYATSLMQWYQQKPGKAPKLLIYAASNVDSGVPSRFSGSGSGTDFTLTISSLQPEDIATYYCQQSRKVPFTFGGGTKVEIK
notes: OAA format as v34891; also called huTN228 V1035A (VL) OAA
B8: v37854 (antibody, V domains shown)
VH: QVQLQESGPGLVKPSETLSLTCAVSGFSLTSYGVHWIRQPPGKGLEWLGVIWPGGGTNFNSALMSRLTISEDTSKNQVSLKLSSVTAADTAVYYCARDRAAGNYLYAMDYWGQGTLVTVSS
VL: DIQMTQSPSSLSASVGDRVTITCRASESVEYYVTSLMQWYQQKPGKAPKLLIYAASNVDSGVPSRFSGSGSGTDFTLTISSLQPEDIATYYCQQSRKVPFTFGGGTKVEIK
notes: OAA format as v34891; also called huTN228 Y1110A (VH) OAA
B9: v37851 (antibody, V domains shown)
VH: QVQLQESGPGLVKPSETLSLTCAVSGFSLTSYGVHWIRQPPGKGLEWLGVIWPGGGTAFNSALMSRLTISEDTSKNQVSLKLSSVTAADTAVYYCARDRAYGNYLYAMDYWGQGTLVTVSS
VL: DIQMTQSPSSLSASVGDRVTITCRASESVEYYVTSLMQWYQQKPGKAPKLLIYAASNVDSGVPSRFSGSGSGTDFTLTISSLQPEDIATYYCQQSRKVPFTFGGGTKVEIK
notes: OAA format as v34891; also called huTN228 N1066A (VH) OAA
B10: v37844 (antibody, V domains shown)
VH: QVQLQESGPGLVKPSETLSLTCAVSGFSLTAYGVHWIRQPPGKGLEWLGVIWPGGGTNFNSALMSRLTISEDTSKNQVSLKLSSVTAADTAVYYCARDRAYGNYLYAMDYWGQGTLVTVSS
VL: DIQMTQSPSSLSASVGDRVTITCRASESVEYYVTSLMQWYQQKPGKAPKLLIYAASNVDSGVPSRFSGSGSGTDFTLTISSLQPEDIATYYCQQSRKVPFTFGGGTKVEIK
notes: OAA format as v34891; also called huTN228 S1036A (VH) OAA
B11: v37841 (antibody, V domains shown)
VH: QVQLQESGPGLVKPSETLSLTCAVSGFALTSYGVHWIRQPPGKGLEWLGVIWPGGGTNFNSALMSRLTISEDTSKNQVSLKLSSVTAADTAVYYCARDRAYGNYLYAMDYWGQGTLVTVSS
VL: DIQMTQSPSSLSASVGDRVTITCRASESVEYYVTSLMQWYQQKPGKAPKLLIYAASNVDSGVPSRFSGSGSGTDFTLTISSLQPEDIATYYCQQSRKVPFTFGGGTKVEIK
notes: OAA format as v34891; also called huTN228 S1029A (VH) OAA
B12: v37847 (antibody, V domains shown)
VH: QVQLQESGPGLVKPSETLSLTCAVSGFSLTSYGVHWIRQPPGKGLEWLGVIWAGGGTNFNSALMSRLTISEDTSKNQVSLKLSSVTAADTAVYYCARDRAYGNYLYAMDYWGQGTLVTVSS
VL: DIQMTQSPSSLSASVGDRVTITCRASESVEYYVTSLMQWYQQKPGKAPKLLIYAASNVDSGVPSRFSGSGSGTDFTLTISSLQPEDIATYYCQQSRKVPFTFGGGTKVEIK
notes: OAA format; also called huTN228 P1058A (VH) OAA
B13: v37843 (antibody, V domains shown)
VH: QVQLQESGPGLVKPSETLSLTCAVSGFSLASYGVHWIRQPPGKGLEWLGVIWPGGGTNFNSALMSRLTISEDTSKNQVSLKLSSVTAADTAVYYCARDRAYGNYLYAMDYWGQGTLVTVSS
VL: DIQMTQSPSSLSASVGDRVTITCRASESVEYYVTSLMQWYQQKPGKAPKLLIYAASNVDSGVPSRFSGSGSGTDFTLTISSLQPEDIATYYCQQSRKVPFTFGGGTKVEIK
notes: OAA format as v34891; also called huTN228 T1035A (VH) OAA

Biological target: huCD28 (human, UniProt P10747 19-152, limits assumed)
Test: SPR, OAA format

| Binder | Fold-change from WT [fold] | Kd [nM] | koff [s⁻¹] | kon [M⁻¹ s⁻¹] |
| --- | --- | --- | --- | --- |
| B1 | 1 | 87.9 | 0.00319 | 36300 |
| B2 | 2.81 | 247 | 0.0139 | 56600 |
| B3 | 3.91 | 344 | 0.0221 | 64700 |
| B4 | 0.84 | 73.7 | 0.00342 | 46400 |
| B5 | 6.16 | 542 | 0.0254 | 47100 |
| B6 | 5.37 | 472 | 0.0601 | 126000 |
| B7 | 4.9 | 431 | 0.0277 | 67700 |
| B8 | 0.9 | 79 | 0.0034 | 43200 |
| B9 | 4.69 | 412 | 0.037 | 90900 |
| B10 | 0.7 | 61.6 | 0.00313 | 50800 |
| B11 | 0.72 | 63.4 | 0.00322 | 51100 |
| B12 | 1.39 | 122 | 0.00626 | 51100 |
| B13 | 0.73 | 64 | 0.00301 | 47100 |
